Laboratory results published in paper PMC7537385.

Target: Exoc7-sfGFP (mouse, endogenously tagged) (mouse (endogenous in normal murine mammary gland cells)) (UniProt O35250)
Assay: co-IP

UniProt O35250, sequence (O35250 whole entry): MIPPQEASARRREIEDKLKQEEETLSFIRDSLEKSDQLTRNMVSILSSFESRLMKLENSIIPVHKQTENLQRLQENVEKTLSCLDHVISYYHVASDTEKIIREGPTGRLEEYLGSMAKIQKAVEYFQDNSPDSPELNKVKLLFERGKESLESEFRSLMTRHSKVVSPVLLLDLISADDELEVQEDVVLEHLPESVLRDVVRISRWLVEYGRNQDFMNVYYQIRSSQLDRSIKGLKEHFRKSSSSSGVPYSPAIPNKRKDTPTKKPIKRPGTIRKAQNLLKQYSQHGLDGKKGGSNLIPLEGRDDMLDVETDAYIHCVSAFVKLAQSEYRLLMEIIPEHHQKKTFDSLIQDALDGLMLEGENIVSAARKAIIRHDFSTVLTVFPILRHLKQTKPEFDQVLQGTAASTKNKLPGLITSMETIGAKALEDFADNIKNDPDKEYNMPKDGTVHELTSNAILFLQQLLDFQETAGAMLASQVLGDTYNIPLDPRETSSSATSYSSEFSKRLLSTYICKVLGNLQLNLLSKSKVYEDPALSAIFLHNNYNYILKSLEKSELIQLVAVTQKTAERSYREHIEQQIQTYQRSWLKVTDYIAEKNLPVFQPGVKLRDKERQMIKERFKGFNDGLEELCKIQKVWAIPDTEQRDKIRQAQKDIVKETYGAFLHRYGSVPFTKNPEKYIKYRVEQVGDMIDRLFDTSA

In the case of “Exoc2 truncated, ~48-kD N-terminal fragment (mouse) (domain or fragment)”, the percent coprecipitated with Exoc7-GFP is reported as 53%.
